The values that follow come from patent US20160369008A1.

The target in test [1] is active PAI-1 in monkey plasma (cynomolgus monkey) (UniProt G7P138). The test is described as follows: ELISA: inhibition of the capture of active PAI-1 of monkey plasma on immobilised uPA (Example 9).
In test [2] the target is human PAI-1 in complex with tPA (human) (UniProt P05121). The test is described as follows: ELISA, tPA-PAI-1 complex on the plate.
Test [3] deals with uPA-monkey PAI-1 complex (monkey) (UniProt P00749). The test is described as follows: ELISA, uPA-monkey PAI-1 complex on the plate.
For test [4], the target named is human PAI-1 in complex with uPA (human) (UniProt P05121). Briefly: ELISA, uPA-PAI-1 complex on the plate.
The target of test [5] is recombinant active human PAI-1 (human) (UniProt P05121). Briefly: cell-based or functional assay.
For test [6], the target named is active PAI-1 in human plasma (human) (UniProt P05121). Briefly: ELISA: inhibition of the capture of active PAI-1 of human plasma on immobilised uPA (Example 9).
Test [7] has as its target latent human PAI-1 (human) (UniProt P05121). The test is described as follows: ELISA, latent human PAI-1 on the plate.
In test [8] the target is active human PAI-1 in complex with vitronectin (human) (UniProt P05121). The test is described as follows: ELISA, VTN-PAI-1 complex on the plate.
Test [9] deals with latent monkey PAI-1 (monkey) (UniProt G7P138). The test is described as follows: ELISA, latent monkey PAI-1 on the plate.
In test [10] the target is tPA-monkey PAI-1 complex (monkey). Briefly: ELISA, tPA-monkey PAI-1 complex on the plate.
Test [11] concerns the target active monkey PAI-1 in complex with vitronectin (monkey). The test is described as follows: ELISA, VTN-monkey PAI-1 complex on the plate.

Sequence of MEDI-579 (antibody) (VH): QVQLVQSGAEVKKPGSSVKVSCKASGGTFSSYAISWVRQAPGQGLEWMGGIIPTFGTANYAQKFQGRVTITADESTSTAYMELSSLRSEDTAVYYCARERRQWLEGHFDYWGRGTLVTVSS
Sequence of MEDI-579 (antibody) (VL): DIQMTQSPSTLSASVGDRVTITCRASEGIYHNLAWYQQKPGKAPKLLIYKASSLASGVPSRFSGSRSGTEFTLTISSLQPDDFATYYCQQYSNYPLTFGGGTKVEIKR
Sequence of tPA-monkey PAI-1 complex (monkey) (P00750 36-562, one chain of several): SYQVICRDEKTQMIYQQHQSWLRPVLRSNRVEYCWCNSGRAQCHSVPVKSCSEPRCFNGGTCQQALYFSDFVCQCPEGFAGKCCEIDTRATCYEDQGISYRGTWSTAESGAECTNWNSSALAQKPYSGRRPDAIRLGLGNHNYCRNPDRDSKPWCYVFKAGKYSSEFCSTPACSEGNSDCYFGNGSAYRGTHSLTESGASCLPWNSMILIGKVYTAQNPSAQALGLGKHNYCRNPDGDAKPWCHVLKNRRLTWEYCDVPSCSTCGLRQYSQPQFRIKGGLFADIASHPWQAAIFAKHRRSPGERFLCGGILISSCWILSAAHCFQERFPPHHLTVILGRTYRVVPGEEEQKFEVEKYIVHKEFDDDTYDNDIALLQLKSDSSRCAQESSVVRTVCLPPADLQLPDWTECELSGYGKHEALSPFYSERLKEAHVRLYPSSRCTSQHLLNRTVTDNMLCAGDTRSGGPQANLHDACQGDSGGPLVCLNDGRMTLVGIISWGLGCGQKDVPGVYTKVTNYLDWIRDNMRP
Sequence of active monkey PAI-1 in complex with vitronectin (monkey) (P04004 20-478, one chain of several): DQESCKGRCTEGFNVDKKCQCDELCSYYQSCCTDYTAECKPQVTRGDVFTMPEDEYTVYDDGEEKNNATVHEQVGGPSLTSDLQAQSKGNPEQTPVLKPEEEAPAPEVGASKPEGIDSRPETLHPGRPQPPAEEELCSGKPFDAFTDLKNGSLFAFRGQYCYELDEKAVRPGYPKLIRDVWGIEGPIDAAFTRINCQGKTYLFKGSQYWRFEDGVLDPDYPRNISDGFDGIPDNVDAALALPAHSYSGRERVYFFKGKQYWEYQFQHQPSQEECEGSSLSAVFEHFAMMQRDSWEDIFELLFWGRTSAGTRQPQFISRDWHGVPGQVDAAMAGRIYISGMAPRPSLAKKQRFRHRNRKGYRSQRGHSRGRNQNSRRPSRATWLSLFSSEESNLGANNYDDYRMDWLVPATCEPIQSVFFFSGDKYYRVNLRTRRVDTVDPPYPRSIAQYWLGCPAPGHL

On to MEDI-579 (antibody), for which the IC50 in [1] came to 0.83 ng/mL; in [6] it was 0.73 ng/mL. Further, the EC50 in test [2] was found to be 3.2 ng/mL; in test [3] it was 5.4 ng/mL; in [4] it was 6.1 ng/mL; in [7] it was 22.1 ng/mL; in test [8], 5.2 ng/mL; in test [9], 48.2 ng/mL. Besides, the results for the concentration for a half-maximal effect (EC50) in test [10] and in [11] were 4.3 ng/mL and 4.1 ng/mL, respectively. Further, the EC50 value, taking the activity of uPA as an indicator (cleavage of a fluorogenic uPA substrate peptide) in test [5] worked out at 42.1 ng/mL.
